Positions of bridges follow the written chain, without caps; N, C: chain ends. Non-standard residues stand in square brackets, D forms with d. No end group written: not given here. Lys(5-OH) = 5-hydroxyl lysine
Target: MAGUK GK domain
Assay: ITC

Kd: 5.9 µM
B1: K(OH)D lactam-type stapled peptide (2), i, i+4 stapled peptide made from linear peptide Ala-Arg-Arg-Asp(salicylaldehyde ester)-Glu-Tyr-Leu-Lys(5-OH)-Ala-Ile-Gln (peptide)
peptide: ARRDEYL[Lys(5-OH)]AIQ-NH2
modifications: lactam 4-8

Reference: patent US20170152286A1
